According to patent publication US20260116996A1 (REGENTS OF THE UNIVERSITY OF MINNESOTA, published 2026):
Blank lines part the entries; values can stand above or below the binder they belong to.

What was measured:
[1] = target: T1, human serpinB6 (human, UniProt P35237 1-376); assay: Luminex bead assay, beads coated with human serpinB6, background (Gfp and Scgn beads) subtracted
T1 construct: Luminex antigen captured from a 293 cell lysate; not shown: V5-His tag of the pcDNA3.1 Directional V5-His-TOPO vector
T1 sequence (looked up): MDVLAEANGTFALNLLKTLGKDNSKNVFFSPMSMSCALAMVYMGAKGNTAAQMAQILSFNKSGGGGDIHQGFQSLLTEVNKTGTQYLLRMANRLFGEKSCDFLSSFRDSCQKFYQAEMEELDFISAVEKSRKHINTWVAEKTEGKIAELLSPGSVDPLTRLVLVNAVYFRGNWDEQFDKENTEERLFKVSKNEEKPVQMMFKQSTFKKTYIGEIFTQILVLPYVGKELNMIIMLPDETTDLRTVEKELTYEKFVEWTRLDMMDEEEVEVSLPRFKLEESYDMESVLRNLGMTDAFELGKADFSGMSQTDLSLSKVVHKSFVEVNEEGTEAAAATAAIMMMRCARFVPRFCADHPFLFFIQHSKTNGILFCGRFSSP
Protocol: (§1) The latter was determined as the average antibody binding to Luminex beads coated with Gfp and Scgn control antigens. Similar data were obtained for antigen binding of Fab fragments of these antibodies (data not shown).
(§2) Luminex assay. Luminex-based technology was used to measure serpinB13 AA in human samples. Initially, the Luminex beads were precoated with serpinB13, Gfp and Scgn, using precleared lysates of 293 cells that had been transfected with individual cDNAs. Biotinylated mouse anti-human K and 2 chain mAbs (BD Biosciences) (dilution 1:300) and streptavidin (Invitrogen) (dilution 1:200) were used as secondary reagents to measure human serum binding activity to individual antigens. The data were expressed as fluorescence intensity (F.I.) due to serum binding activity in the presence of beads precoated with serpinB13 and after subtracting the average F.I. due to serum binding activity in the presence of beads precoated with control proteins, Gfp and Scgn (e.g. F.I.^B13-[F.I.^GFP+F.I.^Segn]/2). The samples were evaluated based on the level of F.I. and the degree of inhibition of binding to serpin-B13 coated beads with soluble serpinB13 (2.5 μg/mL), compared with the bovine serum albumin (BSA). […] All samples were run blind on three independent occasions. Subjects with serum samples that produced a positive results three times were considered positive. Subjects with serum samples that produced a negative result on at least one occasion were considered negative.
(§3) To determine whether anti-serpin activity is specific, binding of three human recombinant antibodies to serpinB13 was examined for potential cross-reactivity with other clade B serpins. Binding to the beads conjugated with Gfp and Scgn was used to subtract the background and the assay was developed using the same reagents as those described above for measuring serpinB13 AA in serum samples.

[2] = target: T2, human serpinB5 (human, UniProt P36952 1-375); assay: Luminex bead assay, beads coated with human serpinB5, background (Gfp and Scgn beads) subtracted
T2 construct: Luminex antigen captured from a 293 cell lysate; not shown: V5-His tag of the pcDNA3.1 Directional V5-His-TOPO vector
T2 sequence (looked up): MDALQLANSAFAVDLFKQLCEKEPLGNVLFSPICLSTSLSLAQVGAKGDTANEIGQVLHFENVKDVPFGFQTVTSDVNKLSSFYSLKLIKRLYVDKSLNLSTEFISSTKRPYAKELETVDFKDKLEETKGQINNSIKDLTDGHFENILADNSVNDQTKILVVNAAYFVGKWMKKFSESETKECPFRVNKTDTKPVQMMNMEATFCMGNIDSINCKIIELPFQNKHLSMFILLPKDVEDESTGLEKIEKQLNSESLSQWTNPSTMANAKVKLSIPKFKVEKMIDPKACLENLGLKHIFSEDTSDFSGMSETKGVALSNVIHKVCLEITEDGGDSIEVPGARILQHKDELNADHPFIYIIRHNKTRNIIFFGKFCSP
Protocol: as §1, §2, §3

[3] = target: T3, human serpinB7 (human, UniProt O75635 1-380); assay: Luminex bead assay, beads coated with human serpinB7, background (Gfp and Scgn beads) subtracted
T3 construct: Luminex antigen captured from a 293 cell lysate; not shown: V5-His tag of the pcDNA3.1 Directional V5-His-TOPO vector
T3 sequence (looked up): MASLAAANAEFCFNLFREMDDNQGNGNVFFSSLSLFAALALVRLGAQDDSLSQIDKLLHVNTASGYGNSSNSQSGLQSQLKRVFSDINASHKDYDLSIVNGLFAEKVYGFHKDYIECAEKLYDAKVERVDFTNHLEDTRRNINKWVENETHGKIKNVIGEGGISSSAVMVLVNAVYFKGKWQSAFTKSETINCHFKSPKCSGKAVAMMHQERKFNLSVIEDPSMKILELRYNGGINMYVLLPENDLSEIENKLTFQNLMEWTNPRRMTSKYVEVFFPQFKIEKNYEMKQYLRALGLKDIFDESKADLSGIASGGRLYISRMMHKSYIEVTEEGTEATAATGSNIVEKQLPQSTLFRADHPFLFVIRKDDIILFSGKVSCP
Protocol: as §1, §2, §3

[4] = target: T4, human serpinB9 (human, UniProt P50453 1-376); assay: Luminex bead assay, beads coated with human serpinB9, background (Gfp and Scgn beads) subtracted
T4 construct: Luminex antigen captured from a 293 cell lysate; not shown: V5-His tag of the pcDNA3.1 Directional V5-His-TOPO vector
T4 sequence (looked up): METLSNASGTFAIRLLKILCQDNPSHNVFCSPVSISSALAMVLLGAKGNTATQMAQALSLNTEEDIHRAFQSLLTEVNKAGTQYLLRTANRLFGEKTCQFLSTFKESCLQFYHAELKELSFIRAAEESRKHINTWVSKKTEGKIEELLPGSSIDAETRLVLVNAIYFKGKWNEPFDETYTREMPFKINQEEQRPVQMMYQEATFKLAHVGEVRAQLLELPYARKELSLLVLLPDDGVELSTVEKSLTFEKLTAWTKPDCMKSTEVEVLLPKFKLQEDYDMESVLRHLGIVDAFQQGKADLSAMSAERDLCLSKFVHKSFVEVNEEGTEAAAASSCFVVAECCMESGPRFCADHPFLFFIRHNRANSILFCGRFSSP
Protocol: as §1, §2, §3

[5] = target: T5, human serpinB1 (human, UniProt P30740 1-379); assay: Luminex bead assay, beads coated with human serpinB1, background (Gfp and Scgn beads) subtracted
T5 construct: Luminex antigen captured from a 293 cell lysate; not shown: V5-His tag of the pcDNA3.1 Directional V5-His-TOPO vector
T5 sequence (looked up): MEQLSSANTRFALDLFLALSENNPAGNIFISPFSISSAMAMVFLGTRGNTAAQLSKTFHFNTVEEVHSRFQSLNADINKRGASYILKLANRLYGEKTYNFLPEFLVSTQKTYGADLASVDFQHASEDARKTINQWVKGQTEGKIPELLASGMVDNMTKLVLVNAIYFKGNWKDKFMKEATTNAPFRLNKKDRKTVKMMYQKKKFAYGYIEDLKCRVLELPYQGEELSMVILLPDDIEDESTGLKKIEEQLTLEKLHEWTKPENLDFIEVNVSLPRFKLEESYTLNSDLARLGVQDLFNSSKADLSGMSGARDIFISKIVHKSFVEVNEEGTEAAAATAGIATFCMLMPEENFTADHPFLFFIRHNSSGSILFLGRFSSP
Protocol: as §1, §2, §3

binding result [1]: no binding (tested: 1.0 µg/mL) | binding result [2]: no binding (tested: 1.0 µg/mL) | binding result [3]: no binding (tested: 1.0 µg/mL) | binding result [4]: no binding (tested: 1.0 µg/mL) | binding result [5]: no binding (tested: 1.0 µg/mL)
B1: recombinant fully human anti-serpinB13 antibody Clone 3 (antibody, human IgG1, kappa, V domains shown)
VH: QVQLQQWGAGLLKPSETLSLTCAVYGGSFSGYYWSWIRQPPGKGLEWIGEINHSGSTNYNPSLKSRVTISVDTSKNQFSLKLSSVTAADTAVYYCARRYCSGGSCYLVGTGSELDYWGQGTLVTVSS
VL: DIQMTQSPSTLSASVGDRVTITCRASQSISSWLAWYQQKPGKAPKLLIYKASSLEIGVPSRFSGSGYGTEFTLTISSLQPDDFATYYCLQYSTHSTFGQGTRVEIKR
notes: also called mAb3; CLONE3-H(m1) / CLONE3-L(m1)

binding result [1]: no binding (tested: 1.0 µg/mL) | binding result [2]: no binding (tested: 1.0 µg/mL) | binding result [3]: no binding (tested: 1.0 µg/mL) | binding result [4]: no binding (tested: 1.0 µg/mL) | binding result [5]: no binding (tested: 1.0 µg/mL)
B2: recombinant fully human anti-serpinB13 antibody Clone 1 (antibody, human IgG1, kappa, V domains shown)
VH: QVQLQESGGGVVQPGRSLRLSCAASGFTFSSYGMHWVRQAPGKGLEWVAVISYDGSNKYYADSVKGRFTISRDNSKNTLYLQMNSLRAEDTAVYYCARDLGAVIAVAGTSTPYNWFDPWGQGTLVTVSS
VL: DVVMTQSPLSLPVTPGEPASISCRSRQSLLHSNGHNYLGWYLQKPGQSPQLLIYLASIRASGIPDRFSGSGSGTDFTLKISRVEAEDVGVYYCMQALQTPYTFGQGTKLEIKR
notes: also called mAb1; mAbs1

binding result [1]: no binding (tested: 1.0 µg/mL) | binding result [2]: no binding (tested: 1.0 µg/mL) | binding result [3]: no binding (tested: 1.0 µg/mL) | binding result [4]: no binding (tested: 1.0 µg/mL) | binding result [5]: no binding (tested: 1.0 µg/mL)
B3: recombinant fully human anti-serpinB13 antibody Clone 2 (antibody, human IgG1, kappa, V domains shown)
VH: QMQLVQSGGGVVRPGGSLRLSCAASGFTFDDYGMSWVRQAPGKGLEWVSGINWNGGSTGYADSVKGRFTISRDNAKNSLYLQMNSLRAEDTALYYCARESSMTTVTTYLLREVGVGLDFDYWGQGTLVTVSS
VL: ETTLTQSPGTLSLSPGERATLSCRASQTVSGSYLAWYQQKPGQPPRLLIYGASSRATGIPDRFSGSGSGTDFTLTISRLEPEDFAVYYCQDYGSSRTFGQGTKVELKR
notes: also called mAb2; CLONE2-H(m1) / CLONE2-L(m1)
